This is an account of results in publication PMC12403663.

The target of data set [1] is human serum albumin (HSA) (Homo sapiens, UniProt P02768 25-609). The data set is described as follows: electrochemical aptasensor.
Data set [2] addresses retinol-binding protein 4 (RBP4, also printed RPB4) (UniProt P02753 19-201). Briefly: electrochemical aptasensor.

Chain of human serum albumin (HSA) (P02768 25-609): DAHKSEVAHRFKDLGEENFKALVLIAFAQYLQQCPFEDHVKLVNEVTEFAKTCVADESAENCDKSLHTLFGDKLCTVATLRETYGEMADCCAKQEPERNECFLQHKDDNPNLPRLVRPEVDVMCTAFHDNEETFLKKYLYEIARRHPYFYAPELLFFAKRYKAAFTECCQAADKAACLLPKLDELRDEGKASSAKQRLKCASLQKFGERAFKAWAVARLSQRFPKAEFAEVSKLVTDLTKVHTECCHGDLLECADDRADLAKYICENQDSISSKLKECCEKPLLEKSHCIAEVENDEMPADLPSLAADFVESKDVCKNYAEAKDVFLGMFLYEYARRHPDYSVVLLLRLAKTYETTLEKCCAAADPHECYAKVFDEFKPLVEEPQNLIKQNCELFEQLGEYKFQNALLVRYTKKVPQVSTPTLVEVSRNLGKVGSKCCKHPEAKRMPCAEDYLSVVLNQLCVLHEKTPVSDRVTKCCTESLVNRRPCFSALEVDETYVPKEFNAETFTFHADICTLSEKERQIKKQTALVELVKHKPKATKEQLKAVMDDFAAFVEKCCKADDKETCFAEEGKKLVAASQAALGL

As for TGCGGTTGTAGTACTCGTGGCCG (ssDNA, 5' Amino C6; 3' Thiol C6 SS) [HSA-binding aptamer], in data set [1], the binding result is “binds”.

B1: RBP4-binding aptamer (ssDNA)
DNA: ATACCAGCTTATTCAATTACAGTAGTGAGGGGTCCGTCGTGGGGTAGTTGGGTCGTGGAGATAGTAAGTGC
modifications: 5' Amino C6; 3' Thiol C6 SS
With B1, the binding result in data set [2] is recorded as “binds”.
